The chains are these.
B1: Twister Ribozyme (parent)
chain: AACACUGCCAAUGCCGGUCCCAAGCCCGGAUAAAAGUGGAGGGGGCGG

The results in this text go back to the RNAGym collection of RNA variant scans (doi:10.7554/elife.80360).

Variants of B1 are the subject of this series. The experiment in a line: self-cleavage, relative activity (ratio to wild type); higher = more cleavage; co-transcriptional.
For the variant AACACUGCCAAUGCCGGUCACAUGCCCGGAUAAAAGUGGAGGGGGCGG, the self-cleavage was found to be 0.0802.
The same measure for AACAUUGCCAAUGCCGCUCCCAAGCCCGGAUAAAAGUGGAGGGGGCGG: 0.0605.
The same measure for AACACUGCCAAUGCCGGUCCCAAGCCCGGAUAAAAGUGGAGGGGGGUG: 0.728; for CACACUGCCAAUGCCGGUCCCAAGCCCGGAUUAAAGUGGAGGGGGCGG: 0.228; for AACACUGCCGAUGCCGGUCCCAAGCCCGGAUAGAAGUGGAGGGGGCGG: 1.04.
As for AACACUGCCAUUGCCGGUCCCAAGCCCGGAUAAAAGUGGAGGGGGCCG, the self-cleavage worked out at 0.624.
The same measure for AACACUGCCAAAGCCGGUCCCAAGCCCGGAUAAAAGUCGAGGGGGCGG: 1.11; for UACACUGCCAAUACCGGUCCCAAGCCCGGAUAAAAGUGGAGGGGGCGG: 0.0679; for AACACUGCCAAUGCCGGUUCCAAGCCCAGAUAAAAGUGGAGGGGGCGG: 0.758.
With AACAAUGCCAAUGCCGGUCCGAAGCCCGGAUAAAAGUGGAGGGGGCGG the figure was 0.113; with AACACUACCAAUGCCGGUCCCAAGCCCUGAUAAAAGUGGAGGGGGCGG, 0.28; with AACACUGCCAAUGCCGGUCCCGGGCCCGGAUAAAAGUGGAGGGGGCGG, 0.0844.
For the variant AACACUGCCAAGGCCGGUCCCAAGCCCGGAUAACAGUGGAGGGGGCGG, the self-cleavage is 0.287.
With AACUCUGCCAAUGCCGGUCCCAAGCCCGGAUAAAAGUGGAGGGCGCGG the figure was 0.105; with AACACUGCCCAUGCCGGUCCCAAGCCCGGGUAAAAGUGGAGGGGGCGG, 0.969.
Consider AACACUGCCAAGGCCGGUCCCAAGCCCGGAUAAAAGUGGAGGAGGCGG, for which the self-cleavage amounted to 0.399.
For the variant AACACUGCCAAUGCCGGUCCCAUGCCCGGAUAAAAGUGGAGGGGGCGC, the self-cleavage is 0.48.
For the variant AACACUGCAAAUGCCGGUGCCAAGCCCGGAUAAAAGUGGAGGGGGCGG, the self-cleavage was 0.0837.
In the case of AACACUGCCAAUGUCGGUCCCAAGCCCGGAUAAUAGUGGAGGGGGCGG, the self-cleavage was found to be 0.951.
In the case of AACACUGCCAAUGCGGGUCCCAAGCCCGGAUGAAAGUGGAGGGGGCGG, the self-cleavage was found to be 0.0996.
The same measure for AACACUGCCAAUGCCGGUCCCAAGCCCGGAUAAAAGUGGAGUUGGCGG: 0.127; for AACCUUGCCAAUGCCGGUCCCAAGCCCGGAUAAAAGUGGAGGGGGCGG: 0.701; for AACACUGCCAAUGUCGGUCCCGAGCCCGGAUAAAAGUGGAGGGGGCGG: 0.319.
The same measure for AAGACUGCCAAUGCCGGUCCCAAGCCCGGAUAAACGUGGAGGGGGCGG: 0.397.
The same measure for UACACUGCCAAUGCCGGUCCCAAGCCCAGAUAAAAGUGGAGGGGGCGG: 0.0517; for AACACUGCCAAUGCCGGUCCCAAGCCCGGAUAAAAAUGGAGGGGUCGG: 0.579.
With AACACAGCCAAUGCCGGUCCCAAGCCCGGAUAAAAGUGGAGGAGGCGG, the self-cleavage came to 0.223.
With AACACUGCCAAUGCCGGUCCCAAGCCCGGAUAAAAGUGUAGGGGGCUG the figure was 0.187.
With AACACUGCCAAUGCCGGUCCCAAGCCCCGAUAAAAGUGGAGGCGGCGG the figure was 0.149.
With AACACUGCCAAUCCCGGUCCCAAGCCCGGAUAAAAGUGGAGAGGGCGG the figure was 0.12.
With AACCCUGCCAAUGCCGGUCCCAAGCCCGGAUAAAAAUGGAGGGGGCGG, the self-cleavage turned out to be 0.103.
The same measure for AACACUGCCAAUGCCGGUCCCAAGCCCGGAUAAGAGUGGAAGGGGCGG: 0.141.
The same measure for AACACUGCCAAUGCCGGUCCCAAGCCCGGAUAAAAGCGGAGGUGGCGG: 0.106.
Regarding AACACCGCCAAUGCAGGUCCCAAGCCCGGAUAAAAGUGGAGGGGGCGG, the self-cleavage was 0.169.
With AACACUGCCAAUGCCGGUCCCACGCCCGGAUAAAAGUGGAGGGAGCGG, the self-cleavage was 0.478.
As to AACACUGCCAAUGCCGGUCCCAAGCCAGGAUAAAACUGGAGGGGGCGG, the self-cleavage was found to be 0.123.
With AACUCUGCCAAUGCCGGUCCCAAGCCCGGAUAAGAGUGGAGGGGGCGG the figure was 0.0772; with AACACUGCCGAUGCCGGUCCCAAGCCCGGAUAAAAGUGGAGGGUGCGG, 1.04; with AACACUGCCACUGCCGGUCCCAAGCCCGGAUAAAAGUGGAGGGGGCGA, 0.998.
With AACACUACCGAUGCCGGUCCCAAGCCCGGAUAAAAGUGGAGGGGGCGG the figure was 0.982.
AAAACUGCCAAUGCCGGUCCCAAUCCCGGAUAAAAGUGGAGGGGGCGG: the self-cleavage turned out to be 0.0787.
The same measure for AACACUGCCAAAGCCGGUCCCAAGCCCGGAUAAAAGUGGAAGGGGCGG: 0.696; for AACACUGCCAAUGCCGGUCCCAAGCCCAGAUAAAAGUGGUGGGGGCGG: 0.125.
The same measure for AACCCUGCCAAUGCCGGUCCCAAGCCCGGAUAAAGGUGGAGGGGGCGG: 0.451; for AACACUGCCAAUGCCGGUCCCAAGCCCGGGUAAAAGUGGAGGGGGCGA: 0.958; for CACACUGCCAAUGCCGGUCCCAAGCCCGGAGAAAAGUGGAGGGGGCGG: 0.144.
With AACACUGCAAAUGCCGGUCCCAAGCCCUGAUAAAAGUGGAGGGGGCGG the figure was 0.53; with AACACUGCUAAUGCCGGUCCCAAGCCCGGAUAAAAGUGGAGGGGGCCG, 0.235; with GACACUGCCAAUGCCGGUCCCAAGCCCGGUUAAAAGUGGAGGGGGCGG, 0.436.
Turning to AACACAGCCAAUGCCGGUCCCAAGCCCGGAUAAAAGUUGAGGGGGCGG, the self-cleavage was found to be 0.188.
AACACUGCCAAUGCCGGUCCGAAGCCCGGAUAAAAGGGGAGGGGGCGG: the self-cleavage was 0.083.
On to AACACUGCCAAUGCCGUUCCCAAGCCCGGAUACAAGUGGAGGGGGCGG, for which the self-cleavage amounted to 0.199.
The same measure for AACACUGCCAAUGCCGGUCCAAAGCCCGGAUAAAAGUGGAGGGGGCAG: 0.135; for AACCCUGCCAACGCCGGUCCCAAGCCCGGAUAAAAGUGGAGGGGGCGG: 0.228.
